These results are taken from PMC6258031 (Structure (London, England : 1993), 2017).

One may read the Kd as a measure of binding affinity in units of concentration.

First the molecules themselves.
T1: Bicc1 SAM F920E (human, UniProt Q9H694 870-939, F920E)
T1 sequence (looked up): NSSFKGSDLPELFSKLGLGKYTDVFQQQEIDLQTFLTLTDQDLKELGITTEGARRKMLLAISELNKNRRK

T2: ANKS3 SAM F472E (human, UniProt Q6ZW76 421-490, F472E)
T2 sequence (looked up): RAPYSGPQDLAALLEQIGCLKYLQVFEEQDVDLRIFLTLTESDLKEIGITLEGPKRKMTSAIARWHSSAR

B1: ANKS3 SAM I455E (domain or fragment, human, UniProt Q6ZW76 421-490, looked up)
chain: T2 sequence (looked up) with I35E, E52F
B2: Bicc1 SAM R924E SeMet (domain or fragment, human, UniProt Q9H694 870-939, looked up)
chain: NSSFKGSDLPELFSKLGLGKYTDVFQQQEIDLQTFLTLTDQDLKELGITTFGAREK[SeMet]LLAISELNKNRRK
B3: Bicc1 SAM E898K (domain or fragment, human, UniProt Q9H694 870-939, looked up)
chain: T1 sequence (looked up) with E29K, E51F
B4: Bicc1 SAM R924E (native) (domain or fragment, human, UniProt Q9H694 870-939, looked up)
chain: T1 sequence (looked up) with E51F, R55E
B5: Bicc1 SAM D911K (domain or fragment, human, UniProt Q9H694 870-939, looked up)
chain: T1 sequence (looked up) with D42K, E51F

Substitutions are numbered along the chain they refer to. In names and notes the source's numbering stands. Non-standard residues stand in square brackets, D forms with d. SeMet = C[Se]CC[C@H](N)C(=O)O

The target in one data set is ANKS6 SAM (Homo sapiens) (UniProt Q68DC2). The following applies: cited from earlier work.
ANKS6 SAM (Homo sapiens), sequence (Q68DC2 770-839): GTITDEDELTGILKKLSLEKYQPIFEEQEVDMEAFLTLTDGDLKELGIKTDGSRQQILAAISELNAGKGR
The next data set addresses T1, Bicc1 SAM F920E. Briefly: SEC-MALS. In general terms: SEC sorts molecules by how far they enter the pores of the column.
The target of the data set “Bicc1 SAM R924E (native)” is B4. Briefly: SPR. (SPR reads the build-up and loss of mass on a sensor chip optically.)
The data set “crystal structure” concerns the molecule itself. Briefly: crystal structure.
Another data set deals with T2, ANKS3 SAM F472E. Briefly: SPR.

ANKS3 SAM (from UniProt Q6ZW76): the dissociation constant Kd in the data set with ANKS6 SAM (Homo sapiens) is 249 nM. For B1, the binding result with Bicc1 SAM F920E is “binds”. Moreover, the affinity in the data set with Bicc1 SAM R924E (native), expressed as Kd, was 2200 ± 100 nM.

For B2, the binding result in “crystal structure” is “binds”.

For B3, the equilibrium dissociation constant (Kd) with ANKS3 SAM F472E and with Bicc1 SAM R924E (native) was 1350 ± 100 nM throughout. For B4, in “crystal structure”, the binding result was “binds”.

Consider B5, for which the Kd with ANKS3 SAM F472E and with Bicc1 SAM R924E (native) was 1350 ± 100 nM in each case.
